Test results from paper PMC6472344, “Self-organization of Plk4 regulates symmetry breaking in centriole duplication” (Nature Communications, 2019).
Numbering of substitutions follows the chain as printed. Names and notes keep the numbering of the source.

B1: Plk4 (Kinase + L1)-His6, kinase-dead (D154A), after GST-tag cleavage (domain or fragment, human, UniProt O00444 1-585, looked up)
chain: MATCIGEKIEDFKVGNLLGKGSFAGVYRAESIHTGLEVAIKMIDKKAMYKAGMVQRVQNEVKIHCQLKHPSILELYNYFEDSNYVYLVLEMCHNGEMNRYLKNRVKPFSENEARHFMHQIITGMLYLHSHGILHRDLTLSNLLLTRNMNIKIAAFGLATQLKMPHEKHYTLCGTPNYISPEIATRSAHGLESDVWSLGCMFYTLLIGRPPFDTDTVKNTLNKVVLADYEMPSFLSIEAKDLIHQLLRRNPADRLSLSSVLDHPFMSRNSSTKSKDLGTVEDSIDSGHATISTAITASSSTSISGSLFDKRRLLIGQPLPNKMTVFPKNKSSTDFSSSGDGNSFYTQWGNQETSNSGRGRVIQDAEERPHSRYLRRAYSSDRSGTSNSQSQAKTYTMERCHSAEMLSVSKRSGGGENEERYSPTDNNANIFNFFKEKTSSSSGSFERPDNNQALSNHLCPGKTPFPFADPTPQTETVQQWFGNLQINAHLRKTTEYDSISPNRDFQGHPDLQKDTSKNAWTDTKVKKNSDASDNAHSVKQQNTMKYMTALHSKPEIIQQECVFGSDPLSEQSKTRGMEPPWGYQNR
notes: human Polo-like kinase 4 (Plk4), kinase domain and Linker 1, residues 1-585, kinase-dead; also called KD mutant; KD; source: E. coli BL21 gold (DE3), purified (glutathione sepharose, Ni-agarose); GST cut off with PreScission protease; not shown: GST, N-terminal, cleaved; His6, C-terminal, kept
B2: GST-Plk4 (Kinase + L1)-His6, kinase-dead (D154A) (domain or fragment, human, UniProt O00444 1-585, looked up)
chain: B1 chain
notes: human Polo-like kinase 4 (Plk4), kinase domain and Linker 1, residues 1-585, kinase-dead; also called KD; source: E. coli BL21 gold (DE3), purified (glutathione sepharose, eluted with glutathione; Ni-agarose); not shown: GST, N-terminal, kept; His6, C-terminal, kept
B3: GST-Plk4 (Kinase + L1)-His6, wild type, dephosphorylated with lambda phosphatase (domain or fragment, human, UniProt O00444 1-585, looked up)
chain: B1 chain with A154D
notes: human Polo-like kinase 4 (Plk4), kinase domain and Linker 1, residues 1-585; The same construct as m5 after removal of its autophosphorylation by λPP; also called λPP-treated WT Plk4 fragments; source: E. coli BL21 gold (DE3), purified (glutathione sepharose, eluted with glutathione; Ni-agarose); incubated with lambda phosphatase; not shown: GST, N-terminal, kept; His6, C-terminal, kept

How the values were obtained:
[1] = target: the molecule itself; experiment: co-sedimentation; spin-down assay: 500 nM GST-Plk4(Kinase + L1)-His6 incubated at 30 °C for 1 h in kinase buffer (20 mM Tris pH 7.5, 300 or 500 mM NaCl, 30 μM ATP, 5 mM MgCl2, 1 mM β-mercaptoethanol), GST cut off with PreScission protease at 4 °C overnight, centrifuged at 21,500 x g for 10 min; supernatant and pellet by SDS-PAGE and CBB staining
[2] = target: the molecule itself; experiment: Proteostat aggregation assay (dye fluorescence); 300 nM GST-Plk4 (Kinase + L1)-His6 in 20 mM Tris pH 7.5, 300 mM NaCl, 1 mM β-mercaptoethanol, 0.1 mM MnCl2, 37 °C for 1 h with or without lambda phosphatase; fluorescence normalised to the WT

Protein	binding result [1]	binding result [2]
B1	binds	–
B2	–	binds
B3	–	binds
